From the supplement of paper PMC10567573

Experiment: protein stability index of a GFP-peptide fusion (GPS, HEK-293T) (PSI 1-6); higher = more stable
Settings: c terminus: native
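Further: lentivirally expressed fusion library, cells FACS-sorted into six equal-sized GFP/DsRed ratio bins, PSI computed from sequencing read fractions per bin weighted by bin number.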

B1: SNF8 addW (peptide)
chain: LPALFTDLYSQEITAEEAREALPW
protein stability index (parent: NP_009172.2): 3.4

B2: TRPA1 addW (peptide)
chain: EQRNSRWNTVLRAVKAKTHHLEPW
protein stability index (parent: NP_015628.1): 3.58

B3: BEX2 addW (peptide)
chain: HSLRAVSTDPPHHDHHDEFCLMPW
protein stability index (parent: NP_116010.1): 3.48

B4: PSMB5 addW (peptide)
chain: DGWIRVSSDNVADLHEKYSGSTPW
protein stability index (parent: NP_002788.1): 3.46

B5: POLD2 addW (peptide)
chain: CQPISFSGFGAEDDDLGGLGLGPW
protein stability index (parent: NP_006221.1): 2.02
